The record followed here is the emibetuzumab library of Makowski et al. (2022).

B1: VH:VL chains; a variant is named by its letters at X, in order (parent)
chain 1: QVQLVQSGAEVKKPGASVKVSCKASGYTFTDYXMHWVRQAPGQGLEWMGXVNPNXXXTTYNQKFEGRVTMTTDTSTSTAYMELRSLRSDDTAVYYCARXNXLDXWGQGTTVTVSS
chain 2: DIQMTQSPSSLSASVGDRVTITCSVSSSVSSIYLHWYQQKPGKAPKLLIYSTSNLASGVPSRFSGSGSGTDFTLTISSLQPEDFATYYCQVYSGYPLTFGGGTKVEIK

The series covers variants of B1. As to the kind of experiment: yeast display scFab, FACS + sequencing. In short, it runs like this: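 Non-specific binding was called from deep sequencing of sorted yeast cells displaying a heavy-chain CDR mutant scFab library. Cells labelled with anti-Myc and biotinylated ovalbumin (260 μg/mL in PBSB, 3 h, room temperature) or soluble membrane proteins (130 μg/mL, 20 min on ice) were FACS-sorted, collecting the top 25% and bottom 10% of binders from two replicates. A sequence was positive when present in ≥3 of 4 pooled positive samples and absent from all negatives, and negative under the converse rule.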
Turning to VTTRAAVS, the non-specific binding call was “no binding”. The same measure for FTRGADAV: “no binding”; for VTTADDWV: “no binding”; for DTREGAVV: “no binding”. DTRTAYGF: the non-specific binding call is “binds”. Consider YTGTSSGA, for which the non-specific binding call is “no binding”. The same measure for VTRGADGV: “no binding”. With VTTKGDVF the entry was “no binding”; with YTKRSSGA, “binds”. With VTRGASGA the entry was “no binding”. Consider YTTKSDGV, for which the non-specific binding call is given as “no binding”. The same measure for DTTGSASD: “no binding”; for DTTGSASF: “no binding”. The same measure for VTTKSAAV: “no binding”; for VTTKSAAA: “no binding”; for YTKETAAD: “binds”. As for YTRGADLA, the non-specific binding call is on record as “no binding”. For the variant VTRGDSGA, the non-specific binding call is recorded as “no binding”.

With YTKGTSVA chain 1 E65K, the non-specific binding call is recorded as “binds”.

Consider DTRGADAV, for which the non-specific binding call was “no binding”. YTRGASWV: the non-specific binding call is reported as “no binding”. For FTTRSALS, the non-specific binding call was “binds”. Take YTKTGDAV: the non-specific binding call is given as “no binding”. With FTREASAV the entry was “binds”; with DTGTSAAF, “binds”.

Take DTTGSAVV: the non-specific binding call is reported as “no binding”. As to DTTGSAVA, the non-specific binding call is on record as “no binding”.

Take FTTRDDSD: the non-specific binding call is on record as “no binding”. The same measure for STTGGDGV: “no binding”; for DTTGSDAV: “no binding”.

For YTTGGDGA, the non-specific binding call is reported as “no binding”. On to YTRKSSVD, for which the non-specific binding call is given as “binds”. The same measure for YTTRGDGV: “no binding”; for DTKAASWA: “no binding”. For the variant DTKAASWV, the non-specific binding call is “no binding”. The same measure for STGTGYVF: “no binding”; for YTGTSDWV: “no binding”; for YTGTSDWY: “no binding”. With FTKAASWV, the non-specific binding call was “no binding”. Take VTRGADAV: the non-specific binding call is given as “no binding”. Consider VTRGADAA, for which the non-specific binding call is “no binding”. The same measure for STKRSFWA: “binds”; for VTGTSDVA: “no binding”; for ATKTAFVS chain 1 M34I: “no binding”. In the case of YTGTSDAV, the non-specific binding call is recorded as “no binding”. Turning to ATTKSAGD, the non-specific binding call is listed as “no binding”.

As to VTTKSSSA, the non-specific binding call is “no binding”. With DTKAASSA the entry was “no binding”. Take DTKAASSS: the non-specific binding call was “no binding”. With VTGTSSLD the entry was “no binding”; with VTKTGDVA, “no binding”. With YTGTSSSV the entry was “no binding”; with YTGTSSSA, “no binding”; with VTTRAASV, “no binding”. The same measure for YTKRGDWD: “binds”; for ATTGGDWD: “no binding”; for FTRTNFLS: “binds”. With YTGTSAVV, the non-specific binding call is “no binding”. The same measure for YTGTSAVA: “no binding”; for YTGTSAVS: “no binding”. For YTGTSSAD, the non-specific binding call is given as “no binding”. Regarding VTTGGDGV, the non-specific binding call is recorded as “no binding”. The same measure for YTTGGYLV: “binds”; for ATTRGAVA: “no binding”; for DTTKSDGV: “no binding”. The same measure for DTKRTAGD: “no binding”; for VTGTSDLY: “no binding”. As to VTGTGSVD, the non-specific binding call was “no binding”. In the case of DTKAASGV, the non-specific binding call is “no binding”. With YTRGASLD, the non-specific binding call is “no binding”. Consider VTTKSFGV, for which the non-specific binding call was “no binding”. The same measure for VTTKSDWV: “no binding”.

In the case of YTGTSAGD, the non-specific binding call is “no binding”. With YTGTSAGV the entry was “no binding”; with YTTGGDVA, “no binding”. With DTKAADVA the entry was “no binding”.

For VTKTGAAA, the non-specific binding call is “no binding”. With YTTRGSWV the entry was “no binding”. In the case of VTTKSDGA, the non-specific binding call is “no binding”. With VTTKSDGY, the non-specific binding call is recorded as “no binding”. The same measure for YTRGGSGA: “binds”; for FTGTSDLY: “no binding”; for YTTRDDSD: “no binding”. With VTRGDVWV the entry was “no binding”; with VTGTGYVF, “no binding”; with VTTKSDAV, “no binding”. The same measure for STGTSDVF: “no binding”; for YTGTSDVY: “no binding”. Turning to YTGTSDVS, the non-specific binding call is given as “no binding”. The same measure for YTGTSASD: “no binding”. With DTTGSSGV the entry was “no binding”; with YTGTSDGV, “no binding”.

On to VTTKSSAV, for which the non-specific binding call is “no binding”. The same measure for YTRGAAVA: “no binding”. Turning to ATTKSDVA, the non-specific binding call is “no binding”. For YTTGGAAV, the non-specific binding call was “no binding”. For the variant VTTRASGD, the non-specific binding call is “no binding”. With DTTGSDVY the entry was “no binding”; with DTTGSDVF, “no binding”; with DTTRADVD, “no binding”. As for VTTKSDSV, the non-specific binding call is listed as “no binding”.

As for VTTKSDSA, the non-specific binding call is “no binding”.

In the case of VTTRDDSD, the non-specific binding call is “no binding”.

With FTKASYVY, the non-specific binding call is “binds”. The same measure for ATRGADAV: “no binding”.
